Kd data for 14 molecules are collected here from US20150299313A1 (Chugai, published 2015).

Numbering of substitutions follows the chain as printed.

B1: GL1-IgG1-SA (+) (antibody)
heavy: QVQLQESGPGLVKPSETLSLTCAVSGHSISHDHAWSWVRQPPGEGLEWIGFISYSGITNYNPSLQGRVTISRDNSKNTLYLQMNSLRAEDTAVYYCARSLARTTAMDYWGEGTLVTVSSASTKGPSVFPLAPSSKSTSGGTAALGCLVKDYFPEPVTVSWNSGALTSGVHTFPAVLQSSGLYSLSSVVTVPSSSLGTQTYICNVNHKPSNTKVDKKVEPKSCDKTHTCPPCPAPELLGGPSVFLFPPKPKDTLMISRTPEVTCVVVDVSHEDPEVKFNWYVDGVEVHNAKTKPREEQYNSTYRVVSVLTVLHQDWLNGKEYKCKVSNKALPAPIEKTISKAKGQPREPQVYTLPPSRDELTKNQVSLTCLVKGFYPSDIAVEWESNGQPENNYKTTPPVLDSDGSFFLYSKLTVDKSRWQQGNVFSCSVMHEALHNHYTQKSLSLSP
light: DIQMTQSPSSLSASVGDSVTITCQASTDISSHLNWYQQKPGKAPELLIYYGSHLLSGVPSRFSGSGSGTDFTFTISSLEAEDAATYYCGQGNRLPYTFGQGTKVEIERTVAAPSVFIFPPSDEQLKSGTASVVCLLNNFYPREAKVQWKVDNALQSGNSQESVTEQDSKDSTYSLSSTLTLSKADYEKHKVYACEVTHQGLSSPVTKSFNRGEC
modifications: N-linked sugar chain at Asn 297 (EU numbering), sialic acid not removed
notes: Same chains as GL1-IgG1-SA (-), not treated with sialidase; also called Fv4-IgG1
B2: GL1-IgG1-SA (-) (antibody)
heavy: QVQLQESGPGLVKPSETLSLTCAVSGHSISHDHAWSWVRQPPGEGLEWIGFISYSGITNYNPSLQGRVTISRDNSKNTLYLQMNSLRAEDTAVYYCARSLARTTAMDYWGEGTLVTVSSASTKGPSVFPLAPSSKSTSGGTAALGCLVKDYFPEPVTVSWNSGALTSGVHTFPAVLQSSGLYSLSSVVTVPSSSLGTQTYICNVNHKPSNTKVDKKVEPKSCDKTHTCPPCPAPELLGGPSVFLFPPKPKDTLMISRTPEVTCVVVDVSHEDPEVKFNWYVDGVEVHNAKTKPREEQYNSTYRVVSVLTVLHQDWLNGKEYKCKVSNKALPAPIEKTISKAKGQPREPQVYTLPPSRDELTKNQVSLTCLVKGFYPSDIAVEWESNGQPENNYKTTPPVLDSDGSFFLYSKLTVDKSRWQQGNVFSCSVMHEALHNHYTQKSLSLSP
light: B1 light
modifications: N-linked sugar chain at Asn 297 (EU numbering), terminal sialic acid removed
notes: also called GL1-IgG1 treated with neuraminidase/sialidase; Fv4-IgG1
B3: GL5-IgG1-SA (-) (antibody)
heavy: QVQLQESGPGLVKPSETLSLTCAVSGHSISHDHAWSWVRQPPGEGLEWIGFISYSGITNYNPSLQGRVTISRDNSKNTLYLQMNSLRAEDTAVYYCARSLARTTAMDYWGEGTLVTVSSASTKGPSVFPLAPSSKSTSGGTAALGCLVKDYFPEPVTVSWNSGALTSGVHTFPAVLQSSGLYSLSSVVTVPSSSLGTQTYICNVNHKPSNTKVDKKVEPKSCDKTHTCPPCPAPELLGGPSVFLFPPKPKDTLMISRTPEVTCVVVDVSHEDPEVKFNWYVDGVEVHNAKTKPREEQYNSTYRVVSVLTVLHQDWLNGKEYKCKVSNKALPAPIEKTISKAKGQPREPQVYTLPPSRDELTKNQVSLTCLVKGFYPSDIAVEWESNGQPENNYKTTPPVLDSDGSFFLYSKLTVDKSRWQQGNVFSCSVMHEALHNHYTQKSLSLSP
light: B1 light with S18N, Q24N
modifications: N-linked sugar chains at two sites of the light chain (Asn 20 and Asn 24, Kabat), sialic acid removed; N-linked sugar chain at Asn 297 (EU numbering), terminal sialic acid removed
notes: Treated with sialidase
B4: H54/L28-IgG1 (antibody, V domains shown)
VH: QVQLQESGPGLVKPSETLSLTCAVSGYSISDDQAWSWVRQPPGEGLEWIGYISYSGITNYNPSLKGRVTISRDTSKNQFSLKLSSVTAADTAAYYCARSLARTTAMDYWGEGTLVTVSS
VL: DIQMTQSPSSLSASVGDSVTITCQASQDISSYLNWYQQKPGKAPELLIYYGSELHSGVPSRFSGSGSGTDFTFTISSLEAEDAATYYCQQGNSLPYTFGQGTKVEIER
notes: Humanized anti-IL-6 receptor antibody without pH or Ca dependency; not treated with sialidase; also called H54/L28-IgG1-SA (+); H54L28-IgG1-SA (+)
B5: GL1-M111-SA (-) (antibody, human IgG1, kappa, N297A)
heavy: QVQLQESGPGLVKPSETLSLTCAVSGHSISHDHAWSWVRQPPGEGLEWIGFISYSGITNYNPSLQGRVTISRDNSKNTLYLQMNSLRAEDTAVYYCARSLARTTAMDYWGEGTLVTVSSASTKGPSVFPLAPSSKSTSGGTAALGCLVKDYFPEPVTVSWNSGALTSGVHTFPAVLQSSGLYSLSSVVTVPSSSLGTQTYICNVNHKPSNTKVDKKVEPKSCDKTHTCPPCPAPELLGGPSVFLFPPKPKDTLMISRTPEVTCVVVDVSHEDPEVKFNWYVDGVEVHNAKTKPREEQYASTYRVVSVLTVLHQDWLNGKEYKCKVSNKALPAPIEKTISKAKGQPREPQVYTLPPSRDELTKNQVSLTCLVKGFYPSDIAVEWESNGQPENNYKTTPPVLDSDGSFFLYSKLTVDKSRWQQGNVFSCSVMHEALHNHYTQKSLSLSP
light: B1 light
notes: No sugar chain on heavy or light chain; treated with neuraminidase
B6: GL4-M111-SA (-) (antibody, human IgG1, kappa, N297A)
heavy: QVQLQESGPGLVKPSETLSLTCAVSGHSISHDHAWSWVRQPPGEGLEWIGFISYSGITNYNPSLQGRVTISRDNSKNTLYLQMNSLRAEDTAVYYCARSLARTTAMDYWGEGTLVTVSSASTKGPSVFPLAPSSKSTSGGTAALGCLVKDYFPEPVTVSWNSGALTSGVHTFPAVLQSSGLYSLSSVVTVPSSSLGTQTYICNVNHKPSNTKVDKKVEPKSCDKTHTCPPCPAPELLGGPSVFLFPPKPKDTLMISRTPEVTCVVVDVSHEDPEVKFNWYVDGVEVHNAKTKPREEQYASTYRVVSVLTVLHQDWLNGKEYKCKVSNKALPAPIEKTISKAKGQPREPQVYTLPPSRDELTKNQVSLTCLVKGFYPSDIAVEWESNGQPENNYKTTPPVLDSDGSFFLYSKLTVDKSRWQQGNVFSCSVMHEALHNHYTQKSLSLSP
light: B1 light with Q24N
modifications: N-linked complex sugar chain at the site introduced by Gln 24 to Asn (Kabat), sialic acid removed, terminal galactose exposed
notes: Treated with neuraminidase
B7: GL5-M111-SA (-) (antibody, human IgG1, kappa, N297A)
heavy: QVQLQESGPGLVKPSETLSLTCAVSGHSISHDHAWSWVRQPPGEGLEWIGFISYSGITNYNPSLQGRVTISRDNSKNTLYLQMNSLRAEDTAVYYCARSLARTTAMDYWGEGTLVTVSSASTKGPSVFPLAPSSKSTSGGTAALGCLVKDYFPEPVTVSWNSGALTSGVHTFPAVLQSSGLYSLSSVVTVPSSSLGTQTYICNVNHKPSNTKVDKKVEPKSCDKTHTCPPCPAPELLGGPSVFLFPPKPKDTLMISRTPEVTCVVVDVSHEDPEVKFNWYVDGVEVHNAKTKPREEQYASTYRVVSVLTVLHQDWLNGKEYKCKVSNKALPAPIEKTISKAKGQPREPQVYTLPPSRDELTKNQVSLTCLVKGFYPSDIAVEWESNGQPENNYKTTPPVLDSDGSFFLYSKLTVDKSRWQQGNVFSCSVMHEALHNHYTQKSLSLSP
light: B1 light with S18N, Q24N
modifications: two N-linked complex sugar chains (G2/G3/G4 combinations) at the sites introduced by Thr 20 to Asn and Gln 24 to Asn (Kabat), sialic acid removed, terminal galactose exposed
notes: Treated with neuraminidase
B8: GL2-M111-SA (-) (antibody, human IgG1, kappa, N297A)
heavy: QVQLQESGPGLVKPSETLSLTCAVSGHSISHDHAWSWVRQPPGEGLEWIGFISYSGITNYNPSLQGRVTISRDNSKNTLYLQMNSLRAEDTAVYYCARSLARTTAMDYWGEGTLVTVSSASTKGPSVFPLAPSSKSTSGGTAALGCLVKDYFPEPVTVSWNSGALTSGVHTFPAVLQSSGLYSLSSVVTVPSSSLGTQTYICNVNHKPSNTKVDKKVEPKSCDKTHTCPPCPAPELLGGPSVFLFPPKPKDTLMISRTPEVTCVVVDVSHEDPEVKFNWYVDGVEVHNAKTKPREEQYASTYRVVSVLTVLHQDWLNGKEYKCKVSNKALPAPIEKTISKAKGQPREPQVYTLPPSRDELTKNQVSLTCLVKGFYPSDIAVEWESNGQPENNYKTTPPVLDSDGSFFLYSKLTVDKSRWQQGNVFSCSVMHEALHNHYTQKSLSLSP
light: B1 light with S18N
modifications: N-linked complex sugar chain at the site introduced by Ser 18 to Asn (Kabat), sialic acid removed, terminal galactose exposed
notes: Treated with neuraminidase
B9: GL7-M111-SA (-) (antibody, human IgG1, kappa, N297A)
heavy: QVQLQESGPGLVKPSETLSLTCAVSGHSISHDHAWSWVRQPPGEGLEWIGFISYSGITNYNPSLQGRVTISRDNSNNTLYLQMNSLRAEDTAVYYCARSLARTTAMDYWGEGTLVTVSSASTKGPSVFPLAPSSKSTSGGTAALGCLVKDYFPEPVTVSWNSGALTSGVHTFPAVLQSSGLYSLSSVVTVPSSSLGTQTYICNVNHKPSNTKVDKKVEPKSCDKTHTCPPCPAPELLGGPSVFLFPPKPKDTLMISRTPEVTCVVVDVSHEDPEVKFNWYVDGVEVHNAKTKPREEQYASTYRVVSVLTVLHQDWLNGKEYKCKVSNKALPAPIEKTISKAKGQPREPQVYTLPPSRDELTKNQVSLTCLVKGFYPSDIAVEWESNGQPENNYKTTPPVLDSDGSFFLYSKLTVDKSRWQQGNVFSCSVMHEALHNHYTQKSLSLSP
light: B1 light with S18N
modifications: N-linked complex sugar chain at the site introduced by Ser 18 to Asn (Kabat), sialic acid removed; N-linked complex sugar chain at the site introduced by Lys 75 to Asn (Kabat), sialic acid removed
notes: Treated with neuraminidase
B10: GL10-M111-SA (-) (antibody, human IgG1, kappa, N297A)
heavy: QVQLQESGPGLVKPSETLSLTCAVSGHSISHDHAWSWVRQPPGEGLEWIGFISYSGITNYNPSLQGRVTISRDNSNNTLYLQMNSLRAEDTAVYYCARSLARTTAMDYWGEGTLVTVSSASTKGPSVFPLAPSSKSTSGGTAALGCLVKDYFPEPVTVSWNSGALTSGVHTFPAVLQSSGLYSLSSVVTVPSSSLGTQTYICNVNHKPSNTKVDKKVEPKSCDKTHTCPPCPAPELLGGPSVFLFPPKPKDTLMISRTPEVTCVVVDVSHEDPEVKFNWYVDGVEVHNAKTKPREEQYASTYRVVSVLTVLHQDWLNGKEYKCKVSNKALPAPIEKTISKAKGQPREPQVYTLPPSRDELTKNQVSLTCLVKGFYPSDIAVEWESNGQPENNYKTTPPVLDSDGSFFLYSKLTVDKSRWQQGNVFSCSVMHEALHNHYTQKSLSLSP
light: B1 light with S18N, Q24N
modifications: two N-linked complex sugar chains at the sites introduced by Thr 20 to Asn and Gln 24 to Asn (Kabat), sialic acid removed; N-linked complex sugar chain at the site introduced by Lys 75 to Asn (Kabat), sialic acid removed
notes: Treated with neuraminidase
B11: GL8-M111-SA (-) (antibody, human IgG1, kappa, N297A)
heavy: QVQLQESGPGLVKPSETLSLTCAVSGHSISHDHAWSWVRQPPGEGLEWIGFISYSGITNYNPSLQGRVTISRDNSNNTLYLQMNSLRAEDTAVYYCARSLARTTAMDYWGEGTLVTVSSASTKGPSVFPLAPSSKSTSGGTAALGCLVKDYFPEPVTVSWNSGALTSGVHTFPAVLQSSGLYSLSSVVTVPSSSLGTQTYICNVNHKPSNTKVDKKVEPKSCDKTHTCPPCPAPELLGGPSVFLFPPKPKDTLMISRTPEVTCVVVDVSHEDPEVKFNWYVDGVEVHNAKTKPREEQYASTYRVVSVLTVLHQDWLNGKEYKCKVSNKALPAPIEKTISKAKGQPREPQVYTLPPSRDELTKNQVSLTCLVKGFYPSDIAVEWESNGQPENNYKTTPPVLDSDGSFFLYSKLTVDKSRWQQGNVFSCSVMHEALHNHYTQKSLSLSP
light: B1 light with T20N
modifications: N-linked complex sugar chain at the site introduced by Thr 20 to Asn (Kabat), sialic acid removed; N-linked complex sugar chain at the site introduced by Lys 75 to Asn (Kabat), sialic acid removed
notes: Treated with neuraminidase
B12: GL3-M111-SA (-) (antibody, human IgG1, kappa, N297A)
heavy: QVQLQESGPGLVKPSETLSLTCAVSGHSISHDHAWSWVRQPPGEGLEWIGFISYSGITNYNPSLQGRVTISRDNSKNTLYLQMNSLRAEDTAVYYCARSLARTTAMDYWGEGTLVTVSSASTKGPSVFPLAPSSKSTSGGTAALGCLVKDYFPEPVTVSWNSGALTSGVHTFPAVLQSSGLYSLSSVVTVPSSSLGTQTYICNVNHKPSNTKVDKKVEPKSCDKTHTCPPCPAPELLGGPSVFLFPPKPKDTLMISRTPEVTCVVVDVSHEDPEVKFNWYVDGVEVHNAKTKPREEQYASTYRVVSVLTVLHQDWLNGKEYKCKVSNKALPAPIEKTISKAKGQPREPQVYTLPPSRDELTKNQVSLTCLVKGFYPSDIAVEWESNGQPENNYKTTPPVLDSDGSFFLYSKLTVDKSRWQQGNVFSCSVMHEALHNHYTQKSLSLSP
light: B1 light with T20N
modifications: N-linked complex sugar chain at the site introduced by Thr 20 to Asn (Kabat), sialic acid removed, terminal galactose exposed
notes: Treated with neuraminidase
B13: GL9-M111-SA (-) (antibody, human IgG1, kappa, N297A)
heavy: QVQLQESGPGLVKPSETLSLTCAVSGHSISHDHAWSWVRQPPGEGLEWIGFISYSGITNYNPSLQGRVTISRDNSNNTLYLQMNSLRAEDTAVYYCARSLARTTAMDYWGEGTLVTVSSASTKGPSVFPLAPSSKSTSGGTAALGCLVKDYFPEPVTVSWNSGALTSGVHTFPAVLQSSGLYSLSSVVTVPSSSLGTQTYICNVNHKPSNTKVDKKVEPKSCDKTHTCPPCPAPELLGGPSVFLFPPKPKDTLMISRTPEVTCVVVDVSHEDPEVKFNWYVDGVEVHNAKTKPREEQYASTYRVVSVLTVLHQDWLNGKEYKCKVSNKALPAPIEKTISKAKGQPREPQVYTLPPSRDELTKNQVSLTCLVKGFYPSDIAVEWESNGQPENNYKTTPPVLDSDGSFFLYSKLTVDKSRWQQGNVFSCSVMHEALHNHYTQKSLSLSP
light: B1 light with Q24N
modifications: N-linked complex sugar chain at the site introduced by Gln 24 to Asn (Kabat), sialic acid removed; N-linked complex sugar chain at the site introduced by Lys 75 to Asn (Kabat), sialic acid removed
notes: Treated with neuraminidase
B14: GL6-M111-SA (-) (antibody, human IgG1, kappa, N297A)
heavy: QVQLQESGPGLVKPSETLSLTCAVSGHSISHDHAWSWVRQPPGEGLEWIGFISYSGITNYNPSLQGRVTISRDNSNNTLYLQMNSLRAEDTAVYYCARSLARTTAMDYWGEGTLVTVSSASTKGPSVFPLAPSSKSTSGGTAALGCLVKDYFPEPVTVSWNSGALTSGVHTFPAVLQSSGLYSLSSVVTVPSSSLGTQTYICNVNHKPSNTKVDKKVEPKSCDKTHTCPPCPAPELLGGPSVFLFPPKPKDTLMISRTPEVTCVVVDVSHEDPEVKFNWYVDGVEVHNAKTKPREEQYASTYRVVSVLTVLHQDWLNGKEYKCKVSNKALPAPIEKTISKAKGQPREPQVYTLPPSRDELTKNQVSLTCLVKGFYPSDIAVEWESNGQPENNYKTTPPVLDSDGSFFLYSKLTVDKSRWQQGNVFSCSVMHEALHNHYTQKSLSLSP
light: B1 light
modifications: N-linked complex sugar chain at the site introduced by Lys 75 to Asn (Kabat), sialic acid removed, terminal galactose exposed
notes: Treated with neuraminidase

The target in one assay is T1, soluble human IL-6 receptor (human, UniProt P08887 20-357).
T1 construct: also called hsIL-6R; hIL6R
T1 sequence: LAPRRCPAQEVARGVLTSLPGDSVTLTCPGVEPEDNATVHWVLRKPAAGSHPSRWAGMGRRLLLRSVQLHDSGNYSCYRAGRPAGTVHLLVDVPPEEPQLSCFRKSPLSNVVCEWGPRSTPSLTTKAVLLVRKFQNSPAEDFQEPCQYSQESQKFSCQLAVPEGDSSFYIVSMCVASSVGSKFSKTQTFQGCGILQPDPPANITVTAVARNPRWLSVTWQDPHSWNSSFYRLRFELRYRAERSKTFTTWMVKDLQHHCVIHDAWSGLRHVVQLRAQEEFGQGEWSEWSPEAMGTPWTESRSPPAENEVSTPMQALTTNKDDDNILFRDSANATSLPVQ
Kind of assay: SPR (Biacore T100), antibody captured on anti-human IgG F(ab')2, human IL-6 receptor as analyte, 37 C, pH 6.0. The protocol:
(§1) GL1-IgG1-SA (−) and GL5-IgG1-SA (−) were treated with sialidase and then used as measurement samples. An appropriate amount of Anti-Human IgG (γ-chain specific), F(ab′)2 fragment antibody produced in goat (Sigma) was immobilized onto Sensor chip CM5 (GE Healthcare) in accordance with the amine coupling method and then a target antibody was allowed to capture. Subsequently, a human IL-6 receptor dilution solution and a running buffer (a blank) were injected at a flow rate of 20 μL/min for 3 minutes to allow the human IL-6 receptor to interact with the antibody captured on the sensor chip. Either one of two types of running buffers pH 7.4 and pH 6.0 containing 10 mmol/L ACES, 150 mmol/L NaCl, and 0.05% (w/v) Tween20 was used and each buffer was employed for dilution of IL-6R. Thereafter, a running buffer was fed at a flow rate 20 μL/min for 5 minutes. After dissociation of the IL-6 receptor was observed, 10 mmol/L Glycine-HCl (pH 1.5) was injected at a flow rate of 30 μL/min for 5 seconds. This procedure was repeated five times to regenerate the sensor chip. All samples were measured at 37° C. From the sensorgram obtained by measurement, an association constant, ka (1/Ms) and a dissociation constant kd (1/s) as kinetics parameters were computationally obtained. From the values, KD (M) of each antibody to a human IL-6 receptor was calculated. Individual parameters were calculated by use of Biacore T100 Evaluation Software (GE Healthcare).
The Kd is the equilibrium constant for the complex coming apart. Higher therefore signals a looser complex. In turn, B1 had a Kd of 66 nM.

The molecule B2 registered a Kd of 61 nM.

The molecule B3 came in with a Kd of 52 nM.

For B4, binding was put at a Kd of 3.4 nM.

The target in another assay is T1, soluble human IL-6 receptor. Kind of assay: SPR (Biacore T100), antibody captured on protein A, human IL-6 receptor as analyte, 37 C, pH 6.0. The protocol:
(§2) Kinetic analysis on the antigen-antibody reaction between each of GL1-IgG1-SA (−), GL1-M111-SA (−), GL2-M111-SA (−), GL3-M111-SA (−), GL4-M111-SA (−), GL5-M111-SA (−), GL6-M111-SA (−), GL7-M111-SA (−), GL8-M111-SA (−), GL9-M111-SA (−), GL10-M111-SA (−) and a human IL-6 receptor was performed by use of Biacore T100 (GE Healthcare). An appropriate amount of protein A (Invitrogen) was immobilized onto Sensor chip CM5 (GE Healthcare) by the amine coupling method and then a target antibody was allowed to capture. Subsequently, a human IL-6 receptor dilution solution and a running buffer (a blank) were injected at a flow rate of 20 μL/min for 3 minutes to allow the human IL-6 receptor to interact with the antibody captured on the sensor chip. Either one of two types of running buffers pH 7.4 and pH 6.0 containing 10 mmol/L ACES, 150 mmol/L NaCl, and 0.05% (w/v) Tween20 was used and each buffer was employed for dilution of IL-6R. Thereafter, the running buffer was fed at a flow rate of 20 μL/min for 5 minutes. After observation of dissociation of the IL-6 receptor, 10 mmol/L Glycine-HCl (pH 1.5) was injected at a flow rate of 30 μL/min for 30 seconds to regenerate the sensor chip. All samples were measured at 37° C. From the sensorgram obtained by measurement, an association constant, ka (1/Ms) and a dissociation constant, kd (1/s) as kinetics parameters were computationally obtained. Based on the obtained values, KD (M) of each antibody to a human IL-6 receptor was calculated. Individual parameters were calculated by use of Biacore T100 Evaluation Software (GE Healthcare).
Regarding B5, the Kd is 150 nM.

Regarding B2, the Kd is 150 nM.

In turn, B6 had a Kd of 140 nM.

Regarding B7, binding was put at a Kd of 99 nM.

B8 came in with a Kd of 110 nM.

In turn, B9 came in with a Kd of 150 nM.

Take B10: the Kd is 130 nM.

For B11, the Kd came to 110 nM.

B12 registered a Kd of 80 nM.

B13 yielded a Kd of 110 nM.

In turn, B14 came in with a Kd of 110 nM.

A further assay has the same target. Kind of assay: SPR (Biacore T100), antibody captured on protein A, human IL-6 receptor as analyte, 37 C, pH 7.4. The protocol:
as §2
(In general: SPR reads the build-up and loss of mass on a sensor chip optically.)
Consider B5, for which binding was characterised by a dissociation constant (Kd) of 1.8 nM.

The molecule B2 returned a Kd of 1.8 nM.

Turning to B6, the Kd stood at 1.7 nM.

B7 gave a Kd of 1.5 nM.

As to B8, binding was put at a Kd of 1.6 nM.

On to B9, for which the Kd turned out to be 2.4 nM.

Take B10: the affinity, expressed as Kd, was 2.4 nM.

As for B11, the Kd was 2 nM.

Regarding B12, the Kd turned out to be 1.3 nM.

Regarding B13, the Kd was 2.3 nM.

With B14, binding was put at a Kd of 2.6 nM.

Another assay has the same target. Kind of assay: SPR (Biacore T100), antibody captured on anti-human IgG F(ab')2, human IL-6 receptor as analyte, 37 C, pH 6.0. The source holds these as a separate data set. The protocol:
(§3) Then, kinetic analysis of an antigen-antibody reaction between each of GL1-M111-SA (−) and GL5-M111-SA (−) and a human IL-6 receptor was performed by using Biacore T100 (GE Healthcare). In both cases, measurement was performed by using an antibody treated with sialidase as a sample. An appropriate amount of Anti-Human IgG (γ-chain specific) F(ab′)2 fragment antibody produced in goat (Sigma) was immobilized onto Sensor chip CM5 (GE Healthcare) in accordance with the amine coupling method and then a target antibody was allowed to capture. Subsequently, a human IL-6 receptor dilution solution and a running buffer (a blank) were injected at a flow rate of 20 μL/min for 3 minutes to allow the human IL-6 receptor to interact with the antibody captured on the sensor chip. Either one of two types of running buffers pH 7.4 and pH 6.0 containing 10 mmol/L ACES, 150 mmol/L NaCl, and 0.05% (w/v) Tween20 was used, and each buffer was employed for dilution of IL-6R. Thereafter, a running buffer was fed at a flow rate 20 μL/min for 5 minutes. After dissociation of the IL-6 receptor was observed, 10 mmol/L Glycine-HCl (pH 1.5) was injected at a flow rate 30 μL/min for 5 seconds. […] All samples were measured at 37° C. […] From the values, KD (M) of each antibody to a human IL-6 receptor was calculated. Individual parameters were calculated by use of Biacore T100 Evaluation Software (GE Healthcare).
For B5, the affinity, expressed as Kd, was 66 nM.

The molecule B7 yielded a Kd of 57 nM.

Another assay has the same target. Kind of assay: SPR (Biacore T100), antibody captured on anti-human IgG F(ab')2, human IL-6 receptor as analyte, 37 C, pH 7.4. The protocol: as §3
Take B5: binding was characterised by a dissociation constant (Kd) of 2 nM.

In turn, B7 gave a Kd of 1.9 nM.

The target is the same in another assay. Described as above. This is another data set of the same source. The protocol:
as §1
For the molecule B1, the Kd amounted to 2.1 nM.

On to B2, for which the Kd amounted to 2.2 nM.

For B3, the Kd is 1.9 nM.

The molecule B4 came in with a Kd of 3.9 nM.
